In paper PMC11871015, “Unraveling the molecular basis of substrate specificity and halogen activation in vanadium-dependent haloperoxidases” (Nature Communications, 2025):

Legend:
[1] = target: T1, AmVHPO (vanadium-dependent haloperoxidase from Acaryochloris marina) (Acaryochloris marina, UniProt B0C4R0, R425S); assay: X-ray co-crystal structure; type: binding; conditions: 1 mM TMB; phosphate in place of vanadate; site at interface of two adjacent subunits (Glu139, Gln399, Phe401); pH 8.5; 20 °C
T1 construct: gene AM1_4975; codon-optimized synthetic gene in pET28-based vector, His-tag, E. coli BL21 (DE3); dodecamer (hexamer of dimers); active site/substrate tunnel formed by two adjacent subunits

[2] = target: AmVHPO R425D mutant (vanadium-dependent haloperoxidase from Acaryochloris marina, R425D) (Acaryochloris marina MBIC 11017); assay: crystal structure; hanging drop vapor diffusion at 20 °C, protein 15 mg/mL, reservoir 0.1 M Tris pH 8.5, 2 M NH4H2PO4, 0.5 mM K3VO4; R425S solved without and with 1 mM 1,3,5-trimethoxybenzene (TMB)
[3] = target: AmVHPO R425S mutant (vanadium-dependent haloperoxidase from Acaryochloris marina, R425S) (Acaryochloris marina MBIC 11017); assay: as above

T1 sequence (B0C4R0 entry or part of it R425S): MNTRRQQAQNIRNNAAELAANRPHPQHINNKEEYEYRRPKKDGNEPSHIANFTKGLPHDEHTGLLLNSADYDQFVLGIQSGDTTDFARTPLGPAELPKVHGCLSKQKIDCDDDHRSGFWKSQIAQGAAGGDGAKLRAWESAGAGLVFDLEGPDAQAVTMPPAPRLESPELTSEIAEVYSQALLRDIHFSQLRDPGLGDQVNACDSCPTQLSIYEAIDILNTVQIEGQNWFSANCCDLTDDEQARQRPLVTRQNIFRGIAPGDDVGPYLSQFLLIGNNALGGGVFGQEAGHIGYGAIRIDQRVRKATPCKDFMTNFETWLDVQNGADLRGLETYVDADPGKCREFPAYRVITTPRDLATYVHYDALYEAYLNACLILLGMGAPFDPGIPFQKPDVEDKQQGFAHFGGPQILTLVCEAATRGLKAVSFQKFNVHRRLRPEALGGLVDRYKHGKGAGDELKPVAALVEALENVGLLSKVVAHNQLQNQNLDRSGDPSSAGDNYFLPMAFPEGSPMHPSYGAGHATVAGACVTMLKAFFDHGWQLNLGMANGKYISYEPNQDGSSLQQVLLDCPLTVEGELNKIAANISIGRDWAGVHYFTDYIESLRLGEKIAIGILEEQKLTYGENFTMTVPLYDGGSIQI

COc1cc(OC)cc(OC)c1 [compound 7, 1,3,5-trimethoxybenzene]
X-ray co-crystal structure [1]: 8Q22 (AmVHPO R425S mutant with TMB)

AmVHPO R425D mutant (vanadium-dependent haloperoxidase from Acaryochloris marina, R425D) (enzyme)
stoichiometry N [2]: 12

AmVHPO R425S mutant (vanadium-dependent haloperoxidase from Acaryochloris marina, R425S) (enzyme)
stoichiometry N [3]: 12
